Experimental data taken from article PMC5028032, “Linkage between Fitness of Yeast Cells and Adenylate Kinase Catalysis” (PLoS ONE, 2016).

Test system: Nc1ncnc2c1ncn2[C@@H]1O[C@H](COP(=O)(O)OP(=O)(O)OP(=O)(O)O)[C@@H](O)[C@H]1O
Experiment: purified protein
Conditions: 300 μM AMP constant, 2 mM MgCl2, 80 mM KCl, 100 mM Tris pH 7.5, 20°C

With Adkeco (Escherichia coli K-12) as the substance, how does the Km read?
Its Km is 72 ± 8 µM.

What about the kcat of the same substance?
Its kcat is 305 s⁻¹.

And the kcat/Km?
Its kcat/Km is 4.26e+06 M⁻¹ s⁻¹.

Which results are given for Adkeco (Escherichia coli K-12; G10V)?
Km: 411 ± 61 µM; kcat: 60 s⁻¹; kcat/Km: 140000 M⁻¹ s⁻¹

Adkeco (Escherichia coli K-12; T163C) was tested. Which Km did it give?
Its Km is 37 ± 2 µM.

And the kcat?
Its kcat is 143 s⁻¹.

What about the kcat/Km of the same substance?
Its kcat/Km is 3.9e+06 M⁻¹ s⁻¹.
